B1: STF2.HA1-1His(PR8), produced in E. coli (protein)
chain: MAQVINTNSLSLLTQNNLNKSQSALGTAIERLSSGLRINSAKDDAAGQAIANRFTANIKGLTQASRNANDGISIAQTTEGALNEINNNLQRVRELAVQSANSTNSQSDLDSIQAEITQRLNEIDRVSGQTQFNGVKVLAQDNTLTIQVGANDGETIDIDLKQINSQTLGLDSLNVQKAYDVKDTAVTTKAYANNGTTLDVSGLDDAAIKAATGGTNGTASVTGGAVKFDADNNKYFVTIGGFTGADAAKNGDYEVNVATDGTVTLAAGATKTTMPAGATTKTEVQELKDTPAVVSADAKNALIAGGVDATDANGAELVKMSYTDKNGKTIEGGYALKAGDKYYAADYDEATGAIKAKTTSYTAADGTTKTAANQLGGVDGKTEVVTIDGKTYNASKAAGHDFKAQPELAEAAAKTTENPLQKIDAALAQVDALRSDLGAVQNRFNSAITNLGNTVNNLSEARSRIEDSDYATEVSNMSRAQILQQAGTSVLAQANQVPQNVLSLLASHNGKLCRLKGIAPLQLGKCNIAGWLLGNPECDPLLPVRSWSYIVETPNSENGICYPGDFIDYEELREQLSSVSSFERFEIFPKESSWPNHNTNGVTAACSHEGKSSFYRNLLWLTEKEGSYPKLKNSYVNKKGKEVLVLWGIHHPPNSKEQQNLYQNENAYVSVVTSNYNRRFTPEIAERPKVRDQAGRMNYYWTLLKPGDTIIFEANGNLIAPMYAFALSRGFGSGIITSNASMHECNTKCQTPLGAINSSLPYQNIHPVTIGECPKYVRHHHHHH
B2: STF2.HA1-2His(PR8), produced in Baculovirus (protein)
chain: AQVINTNSLSLLTQNNLNKSQSALGTAIERLSSGLRINSAKDDAAGQAIANRFTANIKGLTQASRNANDGISIAQTTEGALNEINNNLQRVRELAVQSANSTNSQSDLDSIQAEITQRLNEIDRVSGQTQFNGVKVLAQDNTLTIQVGANDGETIDIDLKQINSQTLGLDSLNVQKAYDVKDTAVTTKAYANNGTTLDVSGLDDAAIKAATGGTNGTASVTGGAVKFDADNNKYFVTIGGFTGADAAKNGDYEVNVATDGTVTLAAGATKTTMPAGATTKTEVQELKDTPAVVSADAKNALIAGGVDATDANGAELVKMSYTDKNGKTIEGGYALKAGDKYYAADYDEATGAIKAKTTSYTAADGTTKTAANQLGGVDGKTEVVTIDGKTYNASKAAGHDFKAQPELAEAAAKTTENPLQKIDAALAQVDALRSDLGAVQNRFNSAITNLGNTVNNLSEARSRIEDSDYATEVSNMSRAQILQQAGTSVLAQANQVPQNVLSLLASGSGSGSKGIAPQLGKCNIAGWLLGNPECDPLLPVRSWSYIVETPNSENGICYPGDFIDYEELREQLSSVSSFERFEIFPKESSWPNHNTNGVTAACSHEGKSSFYRNLLWLTEKEGSYPKLKNSYVNKKGKEVLVLWGIHHPPNSKEQQNLYQNENAYVSVVTSNYNRRFTPEIAERPKVRDQAGRMNYYWTLLKPGDTIIFEANGNLIAPMYAFALSRGFGSGIITSHHHHHH
B3: ngSTF2.HA1-2mutHis(PR8), produced in Baculovirus (protein)
chain: AQVINTNSLSLLTQNNLQKSQSALGTAIERLSSGLRINSAKDDAAGQAIANRFTANIKGLTQASRNANDGISIAQTTEGALNEINNNLQRVRELAVQSAQSTNSQSDLDSIQAEITQRLNEIDRVSGQTQFNGVKVLAQDNTLTIQVGANDGETIDIDLKQINSQTLGLDSLNVQKAYDVKDTAVTTKAYANQGTTLDVSGLDDAAIKAATGGTQGTASVTGGAVKFDADNNKYFVTIGGFTGADAAKNGDYEVNVATDGTVTLAAGATKTTMPAGATTKTEVQELKDTPAVVSADAKNALIAGGVDATDANGAELVKMSYTDKNGKTIEGGYALKAGDKYYAADYDEATGAIKAKTTSYTAADGTTKTAANQLGGVDGKTEVVTIDGKTYQASKAAGHDFKAQPELAEAAAKTTENPLQKIDAALAQVDALRSDLGAVQNRFNSAITNLGNTVNQLSEARSRIEDSDYATEVSQMSRAQILQQAGTSVLAQANQVPQNVLSLLASGSGSGSKGAAPQLGKCNIAGWLLGNPECDPLLPVRSWSDIAETPNSENGICYPGDFIDYEELREQLSSVSSFERFEIFPKESSWPNHNTNGVTAACSHEGKSSFYRNLLWLTEKEGSYPKLKNSYVNKKGKEVLVLWGIHHPPNSKEQQNLYQNENAYVSVVTSNYNRRFTPEIAERPKVRDQAGRMNYYWTLLKPGDTIIFEANGNLIAPMYAFALSRGFGSGIITSHHHHHH
B4: ngSTF2.HA1-1His(PR8), produced in Baculovirus (protein)
chain: AQVINTNSLSLLTQNNLQKSQSALGTAIERLSSGLRINSAKDDAAGQAIANRFTANIKGLTQASRNANDGISIAQTTEGALNEINNNLQRVRELAVQSAQSTNSQSDLDSIQAEITQRLNEIDRVSGQTQFNGVKVLAQDNTLTIQVGANDGETIDIDLKQINSQTLGLDSLNVQKAYDVKDTAVTTKAYANQGTTLDVSGLDDAAIKAATGGTQGTASVTGGAVKFDADNNKYFVTIGGFTGADAAKNGDYEVNVATDGTVTLAAGATKTTMPAGATTKTEVQELKDTPAVVSADAKNALIAGGVDATDANGAELVKMSYTDKNGKTIEGGYALKAGDKYYAADYDEATGAIKAKTTSYTAADGTTKTAANQLGGVDGKTEVVTIDGKTYQASKAAGHDFKAQPELAEAAAKTTENPLQKIDAALAQVDALRSDLGAVQNRFNSAITNLGNTVNQLSEARSRIEDSDYATEVSQMSRAQILQQAGTSVLAQANQVPQNVLSLLASGSGSGSSHNGKLCRLKGIAPLQLGKCNIAGWLLGNPECDPLLPVRSWSYIVETPNSENGICYPGDFIDYEELREQLSSVSSFERFEIFPKESSWPNHNTNGVTAACSHEGKSSFYRNLLWLTEKEGSYPKLKNSYVNKKGKEVLVLWGIHHPPNSKEQQNLYQNENAYVSVVTSNYNRRFTPEIAERPKVRDQAGRMNYYWTLLKPGDTIIFEANGNLIAPMYAFALSRGFGSGIITSQASMHECNTKCQTPLGAIQSSLPYQNIHPVTIGECPKYVRHHHHHH
B5: STF2.HA1-2(PR8), produced in E. coli (protein)
chain: MAQVINTNSLSLLTQNNLNKSQSALGTAIERLSSGLRINSAKDDAAGQAIANRFTANIKGLTQASRNANDGISIAQTTEGALNEINNNLQRVRELAVQSANSTNSQSDLDSIQAEITQRLNEIDRVSGQTQFNGVKVLAQDNTLTIQVGANDGETIDIDLKQINSQTLGLDSLNVQKAYDVKDTAVTTKAYANNGTTLDVSGLDDAAIKAATGGTNGTASVTGGAVKFDADNNKYFVTIGGFTGADAAKNGDYEVNVATDGTVTLAAGATKTTMPAGATTKTEVQELKDTPAVVSADAKNALIAGGVDATDANGAELVKMSYTDKNGKTIEGGYALKAGDKYYAADYDEATGAIKAKTTSYTAADGTTKTAANQLGGVDGKTEVVTIDGKTYNASKAAGHDFKAQPELAEAAAKTTENPLQKIDAALAQVDALRSDLGAVQNRFNSAITNLGNTVNNLSEARSRIEDSDYATEVSNMSRAQILQQAGTSVLAQANQVPQNVLSLLAKGIAPLQLGKCNIAGWLLGNPECDPLLPVRSWSYIVETPNSENGICYPGDFIDYEELREQLSSVSSFERFEIFPKESSWPNHNTNGVTAACSHEGKSSFYRNLLWLTEKEGSYPKLKNSYVNKKGKEVLVLWGIHHPPNSKEQQNLYQNENAYVSVVTSNYNRRFTPEIAERPKVRDQAGRMNYYWTLLKPGDTIIFEANGNLIAPMYAFALSRGFGSGIITS
B6: STF2.HA1-2(PR8)mut, produced in E. coli (protein)
chain: MAQVINTNSLSLLTQNNLNKSQSALGTAIERLSSGLRINSAKDDAAGQAIANRFTANIKGLTQASRNANDGISIAQTTEGALNEINNNLQRVRELAVQSANSTNSQSDLDSIQAEITQRLNEIDRVSGQTQFNGVKVLAQDNTLTIQVGANDGETIDIDLKQINSQTLGLDSLNVQKAYDVKDTAVTTKAYANNGTTLDVSGLDDAAIKAATGGTNGTASVTGGAVKFDADNNKYFVTIGGFTGADAAKNGDYEVNVATDGTVTLAAGATKTTMPAGATTKTEVQELKDTPAVVSADAKNALIAGGVDATDANGAELVKMSYTDKNGKTIEGGYALKAGDKYYAADYDEATGAIKAKTTSYTAADGTTKTAANQLGGVDGKTEVVTIDGKTYNASKAAGHDFKAQPELAEAAAKTTENPLQKIDAALAQVDALRSDLGAVQNRFNSAITNLGNTVNNLSEARSRIEDSDYATEVSNMSRAQILQQAGTSVLAQANQVPQNVLSLLAKGAAPLQLGKCNIAGWLLGNPECDPLLPVRSWSDIAETPNSENGICYPGDFIDYEELREQLSSVSSFERFEIFPKESSWPNHNTNGVTAACSHEGKSSFYRNLLWLTEKEGSYPKLKNSYVNKKGKEVLVLWGIHHPPNSKEQQNLYQNENAYVSVVTSNYNRRFTPEIAERPKVRDQAGRMNYYWTLLKPGDTIIFEANGNLIAPMYAFALSRGFGSGIITS
B7: STF2.HA1-2mutHis(PR8), produced in Baculovirus (protein)
chain: AQVINTNSLSLLTQNNLNKSQSALGTAIERLSSGLRINSAKDDAAGQAIANRFTANIKGLTQASRNANDGISIAQTTEGALNEINNNLQRVRELAVQSANSTNSQSDLDSIQAEITQRLNEIDRVSGQTQFNGVKVLAQDNTLTIQVGANDGETIDIDLKQINSQTLGLDSLNVQKAYDVKDTAVTTKAYANNGTTLDVSGLDDAAIKAATGGTNGTASVTGGAVKFDADNNKYFVTIGGFTGADAAKNGDYEVNVATDGTVTLAAGATKTTMPAGATTKTEVQELKDTPAVVSADAKNALIAGGVDATDANGAELVKMSYTDKNGKTIEGGYALKAGDKYYAADYDEATGAIKAKTTSYTAADGTTKTAANQLGGVDGKTEVVTIDGKTYNASKAAGHDFKAQPELAEAAAKTTENPLQKIDAALAQVDALRSDLGAVQNRFNSAITNLGNTVNNLSEARSRIEDSDYATEVSNMSRAQILQQAGTSVLAQANQVPQNVLSLLASGSGSGSKGAAPLQLGKCNIAGWLLGNPECDPLLPVRSWSDIAETPNSENGICYPGDFIDYEELREQLSSVSSFERFEIFPKESSWPNHNTNGVTAACSHEGKSSFYRNLLWLTEKEGSYPKLKNSYVNKKGKEVLVLWGIHHPPNSKEQQNLYQNENAYVSVVTSNYNRRFTPEIAERPKVRDQAGRMNYYWTLLKPGDTIIFEANGNLIAPMYAFALSRGFGSGIITSHHHHHH
B8: STF2.EIII+ (protein)
chain: MAQVINTNSLSLLTQNNLNKSQSALGTAIERLSSGLRINSAKDDAAGQAIANRFTANIKGLTQASRNANDGISIAQTTEGALNEINNNLQRVRELAVQSANSTNSQSDLDSIQAEITQRLNEIDRVSGQTQFNGVKVLAQDNTLTIQVGANDGETIDIDLKQINSQTLGLDSLNVQKAYDVKDTAVTTKAYANNGTTLDVSGLDDAAIKAATGGTNGTASVTGGAVKFDADNNKYFVTIGGFTGADAAKNGDYEVNVATDGTVTLAAGATKTTMPAGATTKTEVQELKDTPAVVSADAKNALIAGGVDATDANGAELVKMSYTDKNGKTIEGGYALKAGDKYYAADYDEATGAIKAKTTSYTAADGTTKTAANQLGGVDGKTEVVTIDGKTYNASKAAGHDFKAQPELAEAAAKTTENPLQKIDAALAQVDALRSDLGAVQNRFNSAITNLGNTVNNLSEARSRIEDSDYATEVSNMSRAQILQQAGTSVLAQANQVPQNVLSLLRKGNSKLEGQLEFPRTSMEKLQLKGTTYGVCSKAFKFLGTPADTGHGTVVLELQYTGTDGPCKVPISSVASLNDLTPVGRLVTVNPFVSVATANAKVLIELEPPFGDSYIVVGRGEQQINHHWHKSGSSIGK

Biological target: Toll-like Receptor 5 (TLR5) constitutively expressed by HEK293 cells (UniProt O60602)
Test: cell-based or functional assay

Binder | TLR5 activity (EC50, ng/ml) | TLR activity (EC50, ng/ml) | also measured
B1 | 0.2 ng/mL |  | 
B2 |  | 9 ng/mL | 
B3 |  | 9 ng/mL | 
B4 |  | 30 ng/mL | 
B5 | 0.15 ng/mL |  | 
B6 | 1.2 ng/mL |  | 
B7 |  | 900 ng/mL | 
B8 |  |  | TLR-5 EC50 (batch 052): > 5000 ng/mL; TLR-5 EC50 (batch 054): 1200 ng/mL; TLR-5 EC50 (batch 057): 198 ng/mL

Source: patent publication US20130224798A1
